Assays:
[1] = molecular target: OsCas12f1 from Oscillibacter sp. (Oscillibacter sp.); experiment: SEC; Cas12f1 RNP assembled in vitro at 4:3 molar ratio protein:sgRNA in buffer D (25 mM Tris-HCl pH 8.0, 150 mM NaCl, 2 mM DTT, 1 mM MgCl2) at 37 °C for 30 min; Superdex 200 Increase 10/300 equilibrated with buffer D; calibrated with Gel Filtration Standard (Bio-Rad); dimer in presence of sgRNA
[2] = molecular target: RhCas12f1 from Ruminiclostridium herbifermentans (Ruminiclostridium herbifermentans); experiment: as above

| stoichiometry N [1] | stoichiometry N [2] | Substance |
| --- | --- | --- |
| 2 |  | OsCas12f1 from Oscillibacter sp. (enzyme) |
|  | 2 | RhCas12f1 from Ruminiclostridium herbifermentans (enzyme) |

— PMC10090079
